13 molecules from patent publication US20240093255A1, “BIOSYNTHETIC PRODUCTION OF 2-FUCOSYLLACTOSE” (Conagen Inc., priority 2020, published 2024) can be followed below.

Positions count from the first letter of the chain named.

B1: Hs GMD wild type: GDP-mannose-4,6-dehydratase from Homo sapiens, wild type, SEQ ID NO: 9 (protein, listed as Homo sapiens)
chain: MRNVALITGITGQDGSYLAEFLLEKGYEVHGIVRRSSSFNTGRIEHLYKNPQAHIEGNMKLHYGDLTDSTCLVKIINEVKPTEIYNLGAQSHVKISFDLAEYTADVDGVGTLRLLDAVKTCGLINSVKFYQASTSELYGKVQEIPQKETTPFYPRSPYGAAKLYAYWIVVNFREAYNLFAVNGILFNHESPRRGANFVTRKISRSVAKIYLGQLECFSLGNLDAKRDWGHAKDYVEAMWLMLQNDEPEDFVIATGEVHSVREFVEKSFLHIGKTIVWEGKNENEVGRCKETGKVHVTVDLKYYRPTEVDFLQGDCTKAKQKLNWKPRVAFDELVREMVHADVELMRTNPNA
B2: Hs GMD M2: mutant human GMD targeting the GDP-L-fucose allosteric binding pocket, SEQ ID NO: 81 (protein)
chain: B1 chain with H54A
modifications: Homo sapiens GMD mutant
B3: Hs GMD M3: mutant human GMD targeting the GDP-L-fucose allosteric binding pocket, SEQ ID NO: 83 (protein)
chain: B1 chain with K201A
modifications: Homo sapiens GMD mutant
B4: Hs GMD M4: mutant human GMD targeting the GDP-L-fucose allosteric binding pocket, SEQ ID NO: 85 (protein)
chain: B1 chain with R204A
modifications: Homo sapiens GMD mutant
B5: At GMD M4: mutant Arabidopsis thaliana GMD targeting the GDP-L-fucose allosteric binding pocket, SEQ ID NO: 79 (protein)
chain: MASENNGSRSDSESITAPKADSTVVEPRKIALITGITGQDGSYLTEFLLGKGYEVHGLIRRSSNFNTQRINHIYIDPHNVNKALMKLHYADLTDASSLRRWIDVIKPDEVYNLAAQSHVAVSFEIPDYTADVVATGALRLLEAVRSHTIDSGRTVKYYQAGSSEMFGSTPPPQSETTPFHPRSPYAASKCAAHWYTVNYREAYGLFACNGILFNHESPRRGENFVTRKITAALGRIKVGLQTKLFLGNLQASRDWGFAGDYVEAMWLMLQQEKPDDYVVATEEGHTVEEFLDVSFGYLGLNWKDYVEIDQRYFRPAEVDNLQGDASKAKEVLGWKPQVGFEKLVKMMVDEDLELAKREKVLVDAGYMDAKQQP
modifications: Arabidopsis thaliana GMD mutant
B6: At GMD M2: mutant Arabidopsis thaliana GMD targeting the GDP-L-fucose allosteric binding pocket, SEQ ID NO: 75 (protein)
chain: B5 chain with H78A, A231R
modifications: Arabidopsis thaliana GMD mutant
B7: At GMD M3: mutant Arabidopsis thaliana GMD targeting the GDP-L-fucose allosteric binding pocket, SEQ ID NO: 77 (protein)
chain: B5 chain with K228A, A231R
modifications: Arabidopsis thaliana GMD mutant
B8: Ec WT: GDP-mannose-4,6-dehydratase from Escherichia coli, wild type, SEQ ID NO: 11 (protein, listed as Escherichia coli)
chain: MSKVALITGVTGQDGSYLAEFLLEKGYEVHGIKRRASSFNTERVDHIYQDPHTCNPKFHLHYGDLSDTSNLTRILREVQPDEVYNLGAMSHVAVSFESPEYTADVDAMGTLRLLEAIRFLGLEKKTRFYQASTSELYGLVQEIPQKETTPFYPRSPYAVAKLYAYWITVNYRESYGMYACNGILFNHESPRRGETFVTRKITRAIANIAQGLESCLYLGNMDSLRDWGHAKDYVKMQWMMLQQEQPEDFVIATGVQYSVRQFVEMAAAQLGIKLRFEGTGVEEKGIVVSVTGHDAPGVKPGDVIIAVDPRYFRPAEVETLLGDPTKAHEKLGWKPEITLREMVSEMVANDLEAAKKHSLLKSHGYDVAIALES
B9: FutC5: α-1,2-fucosyltransferase candidate from Lachnospiraceae bacterium XBB2008, SEQ ID NO: 29; parent of ASR12 (protein)
chain: MIILQMSGGLGNQMFQYALYLKLKKLGREVKFDDETSYELDNARPVQLAVFDITYPRATRQEVTDMRDSSPAWKDRIRRKLKGRNLKQYTEANYSYDEHVFELDDTYLRGYFQTEKYFSDIRDEIYKTYTMRKDLITEQTTQYEEDILSHENSVSIHIRRGDYMTIEGGEIYAGICTDEFYDSAIKYVLERHPDAVFYLFTNDSSWAEYFCNIHSDVNIHVVEGNTEYFGYLDMYLMSRCKHHIVANSSFSWWGAWLGRDADGMVIAPDPWFNCSNCADIHTDRMILIDPKGELLTDDKGVRNESEE
modifications: Lachnospiraceae bacterium XBB2008
notes: parent of ASR12
B10: FutC2: α-1,2-fucosyltransferase candidate from Pisciglobus halotolerans, SEQ ID NO: 23 (protein)
chain: MIYTRITSGLGNQMFQYAIAYSYSRKYDMPLILDLTNFKISKKRTYQLDKFKLNDYKKITFKNAPLEIKIFWLVEVLNMISIKLRKKEMKRKNNYNLKSTQFICEKYKEKYNINFDLTNKSLYLSGFWQSPLYFENYRDELIQQFSPNYVLSNKLKEYETKIINCRSVSVHIRRGDFLQHGLFKDVDYQKKAITYLEKKLDNPIFFFFSDDIEWTKEKFKNQKNCFFVSSDSKNSGIEEMYLMSKCENNIIANSTFSWWGAWLNQNQNKIVIAPSTGFGNKDILPKSWYTI
modifications: Pisciglobus halotolerans
B11: FutC 18: α-1,2-fucosyltransferase candidate from Rhizobiales bacterium, SEQ ID NO: 55 (protein, listed as Rhizobiales bacterium)
chain: MIVTRIVGGLGNQMFQYAVGRALSAKTGQEFKLDLSEMDRYKVHALQLDQFNIKGVRAGRHEIPFRPRKSFFGKILTALKNRNRIPQVFETTPSFDPSVLQRKGSCYLSGYWQSEKYFSDCSELIRADFSLKGPMSDERQAVLSQIRDAEAPVSVHVRRGDYVTNTTANSIHGTCEPEWYRQAMRKISDRTGDPTFFVFSDDPMWARSNLPTYEKMVFVEPRADGKDAEDMHLMSSCQSHIIANSTFSWWGAWLNPRQDKRVIAPARWFRAEDRDSTDLVPAQWERL
B12: FutC10: α-1,2-fucosyltransferase candidate from Thermosynechococcus elongatus, SEQ ID NO: 39 (protein, listed as Thermosynechococcus elongatus)
chain: MIIVRLCGGLGNQMFQYAAGLAAAHRIGSEVKFDTHWFDATCLHQGLELRRVFGLELPEPSSKDLRKVLGACVHPAVRRLLSRRLLRALRPKSLVIQPHFHYWTGFEHLTDNVYLEGYWQSERYFSNIADIIRQQFRFVEPLDPHNAALMDEMQSGVSVSLHIRRGDYFNNPQMRRVHGVDLSEYYPAAVATMIEKTNAERFYVFSDDPQWVLEHLKLPVSYTVVDHNRGAASYRDMQLMSACRHHIIANSTFSWWGAWLNPRPDKVVIAPRHWFNVDVFDTRDLYCPEWIVL
B13: FutC13: α-1,2-fucosyltransferase candidate from Candidatus Brocadia sapporoensis, SEQ ID NO: 45 (protein)
chain: MQLKRWPQLKPTDAAVFGSGKQTIMIIVKLMGGLGNQMFQYAAGRRLAEKLGVKLKLDIEMFKDNTLRKYELGAFNIQECFAAVEEIERLTVVKRGIVEKALDRVFKRPIRRPGGYVAEKYFVFDPSILQLPDQVYLDGYWQSEKYFAEIETIIREEFTIKYPQTDKNKVLSDSIKSGNSVTVHVRRGDYVNNPETNSLHGVCGIDYYQRCIDFIITKIANPHFFFFSDDPEWVKNNLKIKYESTVVEHNGAEKCYEDLRLLSQGKYHIIANSTFSWWGAWLNKNPEKMVVAPEKWFKKEDVNTKGFIPEDWIRL
modifications: Candidatus Brocadia sapporoensis

One data set in a line: GDP-L-fucose inhibition assay of GMD enzymes (GDP-4-keto-6-deoxymannose detection). The class given is biochemical. The note with it: 350 μM GDP-L-fucose; 1 mM GDP-mannose, 0.5 mg/mL GMD. The procedure:
To test for inhibition, the mutants were expressed and purified as described in Example 7, and assayed at a range of GDP-L-fucose concentrations. The assay conditions were as follows: 50 mM Tris pH 7.5, 1 mM GDP-mannose, 0.5 mM NADP^+, 0.5 mg/mL dehydratase (GMD) enzyme, and 0 μM, 70 μM or 350 μM GDP-L-fucose. The reactions were quenched at 99° C. for 10 minutes, and the enzymes' respective activities were analyzed using the nucleotide sugar LC-MS method by GDP-4-keto-6-deoxymannose detection.
As to B1, the retained activity result is recorded as “less than 5%”.

Regarding B2, the retained activity is reported as 80%. Molecule B3 registered a retained activity of 100%. The same measure, in the same setting: with B4 the figure was 100%; with B5, 100%. B6 registered a retained activity of 40%. The same measure, in the same setting: next, B7: 50%. On to B8, for which the decrease in activity is listed as 80%.

The next data set in a line: FutC candidate activity in vitro using the de novo synthesis pathway (2′-FL by HPLC). Type of data set: biochemical. The note with it: 0.2 mg/mL fucosyltransferase, 1 mM GDP-mannose, 80 mM lactose, room temperature, 16 hours. The method, then:
The final step in the novel path to 2′-FL requires an α-1,2-fucosyltransferase. Various FutC candidates were screened for soluble expression in E. coli and fucosyltransferase activity. The candidate enzymes show different solubilities and enzymatic activity for 2′-FL synthesis. For the candidates that have highly soluble expression, their activity was tested in vitro using the de novo synthesis pathway. The reaction conditions were: 50 mM Tris-HCl pH 8.0, 2 mM NADPH, 0.1 mM NADP^+, 1 mM GDP-mannose, 80 mM lactose, 0.9 mg/mL Ec Gmd (SEQ 11), 0.2 mg/mL Ec WcaG (SEQ ID NO: 7) and 0.2 mg/mL of the fucosyltransferase candidates. The reactions were incubated at room temperature for 16 hours. The reactions were quenched by heating at 99° C. for 10 minutes, and then analyzed by HPLC.
In the case of B9, the “α-1,2-fucosyltransferase activity for 2′-FL production” value (from here on “α-1,2-fucosyltransferase activity”) is recorded as “have α-1,2-fucosyltransferase activity for 2′-FL production”. On the same count and under the same terms, next, B10: “have α-1,2-fucosyltransferase activity for 2′-FL production”.

Consider B11, for which the “α-1,2-fucosyltransferase activity” value was “have α-1,2-fucosyltransferase activity for 2′-FL production”. Still for that read-out and setting: next, B12: “have α-1,2-fucosyltransferase activity for 2′-FL production”. In the case of B13, the “α-1,2-fucosyltransferase activity” value was “have α-1,2-fucosyltransferase activity for 2′-FL production”.
